Literature values, collected in publication PMC6690345.

Molecular target: integrin αIIbβ3 (Homo sapiens) (UniProt P08514)
Assay: SPR

Kd [µM]	Substance
21	ERp5 (from UniProt Q15084)
1	PDI (from UniProt P07237)
